Measurements reported in PMC11947619, “Molecular mechanism of Mad2 conformational conversion promoted by the Mad2‐interaction motif of Cdc20” (Protein Science : A Publication of the Protein Society, 2025).

B1: Mad2^LL: loop‐less Mad2: residues 109–117 (…) replaced with GSG (protein)
chain: MALQLSREQGITLRGSAEIVAEFFSFGINSILYQRGIYPSETFTRVQKYGLTLLVTTDLELIKYLNNVVEQLKDWLYKCSVQKLVVVISNIESGEVLERWQFDIECDKGSGEKSQKAIQDEIRSVIRQITATVTFLPLLEVSCSFDLLIYTDKDLVVPEKWEESGPQFITNSEEVRLRSFTTTIHKVNSMVAYKIPVND
modifications: left off: His6, N-terminal, state not stated | DoubleStrep, N-terminal, state not stated
notes: loop‐less Mad2: residues 109–117 (…) replaced with GSG

Tests used:
[1] = system: O‐Mad2; settings: in vitro, ref Lad et al., [2009], Simonetta et al.; cited from earlier work
Description: Juxtaposing the accessible Cdc20^MIM adjacent to O‐Mad2 by the MCC‐assembly scaffold involves the dimerization of an O‐Mad2 molecule with Mad1‐bound C‐Mad2 (Chen et al., [2023]; Fischer et al., [2022]; Lara‐Gonzalez et al., [2021]; Piano et al., [2021]).

[2] = Spontaneous O-Mad2 to C-Mad2 conversion / stability of the open state; assay type: physicochemical; settings: NMR backbone assignment samples
Procedure: FIGURE 2 NMR fingerprinting of Mad2. (a) Structural orientations of Trp75 (on the αB helix) and Trp167 (on the “safety‐belt”) in Mad2 produce distinct indole NH resonances. […] NMR spectra for O‐Mad2^R133A and “empty” C‐Mad2^L13A/R133A and C‐Mad2^R133A:Cdc20^MIM‐111‐138 are from Fischer et al. ([2022]) (c) Mad2 conversion rates vary with different MIM peptides. Conversion was traced over 24 h at 25°C using the Trp75 and Trp167 side‐chain resonances as reporters. MIM peptides were added at two‐fold molar excess to Mad2 (100 μM). Each spectrum required 12 min of acquisition time, therefore the 15 min time‐points represent the earliest spectra in the time‐resolved series. The schematics show the conformation of Mad2 as indicated by the tryptophan side‐chain resonances. A black tick marks when conversion is considered complete. NMR data for O‐Mad2^R133A with and without Cdc20^MIM‐111‐138 shown are from Fischer et al. ([2022]). In the case of full‐length Cdc20, the MIM sequence is sequestered by an auto‐inhibitory intramolecular interaction within Cdc20 itself, which prevents it from being readily accessible for binding to C‐Mad2 (Piano et al., [2021]). Conversely, isolated MIM peptides lack this auto‐inhibitory mechanism, allowing them to bind directly to C‐Mad2 without obstruction. […]

Row | Molecule | enhancement of O-Mad2 to C-Mad2 conversion rate by dimerization with C-Mad2 [1] [fold] | limited stability (slow O-Mad2 to C-Mad2 conversion) [2] [days]
1 | C‐Mad2: Mad2 in the closed active state | 3 to 4 | –
2 | B1 | – | < 3
